# Measurements as given in PMC9807911, “RH5.1-CyRPA-Ripr antigen combination vaccine shows little improvement over RH5.1 in a preclinical setting” (Frontiers in Cellular and Infection Microbiology, 2022).
# B1: RH5.1 (E26-Q526; T40A, T216A, T286A, T299A) (natural protein)
# chain: ENAIKKTKNQENNLALLPIKSTEEEKDDIKNGKDIKKEIDNDKENIKTNNAKDHSTYIKSYLNTNVNDGLKYLFIPSHNSFIKKYSVFNQINDGMLLNEKNDVKNNEDYKNVDYKNVNFLQYHFKELSNYNIANSIDILQEKEGHLDFVIIPHYTFLDYYKHLSYNSIYHKSSTYGKCIAVDAFIKKINEAYDKVKSKCNDIKNDLIATIKKLEHPYDINNKNDDSYRYDISEEIDDKSEETDDETEEVEDSIQDTDSNHAPSNKKKNDLMNRAFKKMMDEYNTKKKKLIKCIKNHENDFNKICMDMKNYGTNLFEQLSCYNNNFCNTNGIRYHYDEYIHKLILSVKSKNLNKDLSDMTNILQQSELLLTNLNKKMGSYIYIDTIKFIHKEMKHIFNRIEYHTKIINDKTKIIQDKIKLNIWRTFQKDELLKRILDMSNEYSLFITSDHLRQMLYNTFYSKEKHLNNIFHHLIYVLQMKFNDVPIKMEYFQTYKKNKPLTQ
# Target: CyRPA (D29-E362; S147A, T324A, T340A) (Plasmodium falciparum 3D7, UniProt Q8IFM8 29-362, S147A | T324A | T340A)
# Test: gel electrophoresis
# Conditions: both partners purified
binder,measurement,value
B1,binding result,binds
